Data published in the supplement of paper PMC9112550, “Optimization of the antimicrobial peptide Bac7 by deep mutational scanning” (BMC Biology, 2022).

System: Escherichia coli TOP10
Experiment: shrunken log2 fold change of peptide-encoding DNA abundance (4.5 h post-induction vs induction); higher = less antimicrobial activity (less host growth inhibition)
Settings: time post-induction: 4.5 h; library: site-saturation at positions 5, 18, 19, 20
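Note: peptides expressed intracellularly from a pBAD plasmid library in pooled LB shake-flask culture, induced with 0.3% L-arabinose, DNA abundance read by NGS, three biological replicates, DESeq2 with apeglm shrinkage.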

Point of comparison: RRIRPRPPRLPRPRPRPYHYPRP, “shrunken log2 fold change” value -0.84. Against it:
- RRIRPRPPRLPRPRPRPKNQPRP — higher, -0.108
- RRIRERPPRLPRPRPRPEAHPRP — higher, 0.201
- RRIRFRPPRLPRPRPRPNNRPRP — higher, -0.139
- RRIRVRPPRLPRPRPRPFTFPRP — higher, -0.0282
- RRIRCRPPRLPRPRPRPTSHPRP — higher, -0.348
- RRIRARPPRLPRPRPRPNGCPRP — higher, -0.0858
- RRIRFRPPRLPRPRPRPAEKPRP — higher, -0.0885
- RRIRYRPPRLPRPRPRPKDSPRP — higher, -0.0869
- RRIRQRPPRLPRPRPRPNFSPRP — higher, -0.23
- RRIRKRPPRLPRPRPRPLMWPRP — higher, 0.284
- RRIRIRPPRLPRPRPRPEGEPRP — higher, 0.134
- RRIRHRPPRLPRPRPRPVMYPRP — lower, -1.29
- RRIRSRPPRLPRPRPRPCYCPRP — higher, -0.215
- RRIRPRPPRLPRPRPRPMRSPRP — higher, 0.478
- RRIRRRPPRLPRPRPRPIIFPRP — higher, -0.0332
- RRIRMRPPRLPRPRPRPAGVPRP — higher, 0.688
- RRIRSRPPRLPRPRPRPWIDPRP — higher, -0.615
- RRIRARPPRLPRPRPRPYQCPRP — higher, -0.44
- RRIRTRPPRLPRPRPRPCLDPRP — higher, -0.405
- RRIRLRPPRLPRPRPRPPDFPRP — higher, -0.0501
- RRIRTRPPRLPRPRPRPMHNPRP — higher, -0.503
- RRIRQRPPRLPRPRPRPPWEPRP — higher, -0.0075
- RRIRHRPPRLPRPRPRPIYMPRP — higher, -0.0111
- RRIRSRPPRLPRPRPRPNYEPRP — higher, -0.609
- RRIRYRPPRLPRPRPRPWSDPRP — higher, -0.0783
- RRIRIRPPRLPRPRPRPEQSPRP — higher, 0.168
- RRIRYRPPRLPRPRPRPYVDPRP — higher, -0.0075
- RRIRARPPRLPRPRPRPKKSPRP — higher, 1.2
- RRIRPRPPRLPRPRPRPQFFPRP — higher, -0.0064
- RRIRKRPPRLPRPRPRPNGQPRP — higher, 0.203
- RRIRFRPPRLPRPRPRPLLVPRP — higher, 0.0528
- RRIRWRPPRLPRPRPRPCKYPRP — higher, -0.509
- RRIRMRPPRLPRPRPRPCPTPRP — higher, 0.11
- RRIRWRPPRLPRPRPRPRREPRP — higher, 0.427
- RRIRQRPPRLPRPRPRPDTMPRP — higher, 0.0515
- RRIRYRPPRLPRPRPRPTEHPRP — higher, -0.501
- RRIRIRPPRLPRPRPRPFRVPRP — higher, -0.369
- RRIRHRPPRLPRPRPRPSAPPRP — higher, -0.239
- RRIRWRPPRLPRPRPRPRCHPRP — higher, 0.33
- RRIRARPPRLPRPRPRPAGQPRP — higher, 0.143
- RRIRWRPPRLPRPRPRPTCMPRP — higher, 0.553
- RRIRVRPPRLPRPRPRPHFTPRP — higher, -0.253
- RRIRCRPPRLPRPRPRPRIFPRP — higher, -0.16
- RRIRFRPPRLPRPRPRPFDTPRP — higher, -0.486
- RRIRMRPPRLPRPRPRPHILPRP — higher, 0.113
- RRIRDRPPRLPRPRPRPFYIPRP — within 0.2 log units, -0.796
- RRIRNRPPRLPRPRPRPYDFPRP — higher, 0.0143
- RRIRPRPPRLPRPRPRPLCIPRP — higher, -0.403
- RRIRHRPPRLPRPRPRPSMGPRP — higher, -0.149
- RRIRYRPPRLPRPRPRPVEHPRP — higher, -0.0137
- RRIRNRPPRLPRPRPRPCPHPRP — higher, -0.01
- RRIRTRPPRLPRPRPRPRYEPRP — higher, -0.0806
- RRIRRRPPRLPRPRPRPKGVPRP — higher, 0.401
- RRIRERPPRLPRPRPRPGGMPRP — higher, -0.02
- RRIRWRPPRLPRPRPRPMAVPRP — higher, 0.173
- RRIRNRPPRLPRPRPRPGQDPRP — higher, -0.0269
- RRIRWRPPRLPRPRPRPRSFPRP — higher, -0.00655
- RRIRNRPPRLPRPRPRPGQKPRP — higher, -0.000842
- RRIRLRPPRLPRPRPRPTSRPRP — higher, 0.0104
- RRIRKRPPRLPRPRPRPAWQPRP — higher, 0.714
- RRIRPRPPRLPRPRPRPMFQPRP — higher, -0.241
- RRIRMRPPRLPRPRPRPTHHPRP — higher, 0.316
- RRIRERPPRLPRPRPRPAVGPRP — higher, 0.209
- RRIRERPPRLPRPRPRPRVRPRP — higher, 0.211
- RRIRSRPPRLPRPRPRPEVRPRP — higher, -0.109
- RRIRVRPPRLPRPRPRPVFTPRP — higher, -0.14
- RRIRLRPPRLPRPRPRPNNSPRP — within 0.2 log units, -0.952
- RRIRLRPPRLPRPRPRPVSHPRP — higher, 0.0743
- RRIRERPPRLPRPRPRPCAGPRP — higher, -0.0261
- RRIRLRPPRLPRPRPRPFPIPRP — higher, -0.0478
- RRIRWRPPRLPRPRPRPYADPRP — higher, -0.0623
- RRIRERPPRLPRPRPRPPTHPRP — higher, 0.0517
- RRIRGRPPRLPRPRPRPFGYPRP — higher, -0.0838
- RRIRGRPPRLPRPRPRPGQFPRP — higher, -0.00612
- RRIRRRPPRLPRPRPRPFMWPRP — higher, 0.00755
- RRIRSRPPRLPRPRPRPDCAPRP — higher, 0.187
- RRIRKRPPRLPRPRPRPREHPRP — higher, 0.0968
- RRIRLRPPRLPRPRPRPCAMPRP — higher, 0.00887
- RRIRCRPPRLPRPRPRPGHYPRP — higher, -0.0646
- RRIRCRPPRLPRPRPRPRLVPRP — higher, 0.0587
- RRIRRRPPRLPRPRPRPEQQPRP — higher, 0.22
- RRIRNRPPRLPRPRPRPFNQPRP — higher, -0.408
- RRIRERPPRLPRPRPRPHHAPRP — higher, 0.0055
- RRIRNRPPRLPRPRPRPACMPRP — higher, 0.0165
- RRIRGRPPRLPRPRPRPCNHPRP — higher, -0.402
- RRIRARPPRLPRPRPRPHVLPRP — higher, -0.0367
- RRIRTRPPRLPRPRPRPLQEPRP — higher, 0.0814
- RRIRERPPRLPRPRPRPMWNPRP — higher, -0.0278
- RRIRMRPPRLPRPRPRPDCYPRP — higher, -0.15
- RRIRMRPPRLPRPRPRPWQHPRP — higher, 0.0948
- RRIRKRPPRLPRPRPRPYNWPRP — higher, -0.155
- RRIRQRPPRLPRPRPRPGSDPRP — higher, 0.337
- RRIRWRPPRLPRPRPRPAFRPRP — higher, -0.015
- RRIRERPPRLPRPRPRPSCNPRP — higher, -0.0433
- RRIRKRPPRLPRPRPRPESWPRP — higher, 1.02
- RRIRERPPRLPRPRPRPQHPPRP — higher, -0.367
- RRIRDRPPRLPRPRPRPNMYPRP — higher, -0.229
- RRIRGRPPRLPRPRPRPCMPPRP — higher, -0.152
- RRIRNRPPRLPRPRPRPRLFPRP — higher, 0.0322
- RRIRYRPPRLPRPRPRPFCAPRP — higher, -0.415
- RRIRHRPPRLPRPRPRPQWWPRP — higher, -0.0314
- RRIRCRPPRLPRPRPRPYEGPRP — higher, -0.103
- RRIRTRPPRLPRPRPRPIRRPRP — higher, 0.0581
- RRIRSRPPRLPRPRPRPTYQPRP — higher, -0.0198
- RRIRSRPPRLPRPRPRPQKEPRP — higher, 0.052
- RRIRYRPPRLPRPRPRPRHDPRP — higher, -0.237
- RRIRARPPRLPRPRPRPGFGPRP — higher, 0.667
- RRIRGRPPRLPRPRPRPDYNPRP — higher, -0.12
